These are literature values, as cited in publication PMC8160820.

The term Kd denotes the constant that tells how readily two partners part at equilibrium.

For the series, the target named is PEDF-R (Homo sapiens) (UniProt Q96AD5).
Sequence of UniProt Q96AD5 (Q96AD5 whole entry): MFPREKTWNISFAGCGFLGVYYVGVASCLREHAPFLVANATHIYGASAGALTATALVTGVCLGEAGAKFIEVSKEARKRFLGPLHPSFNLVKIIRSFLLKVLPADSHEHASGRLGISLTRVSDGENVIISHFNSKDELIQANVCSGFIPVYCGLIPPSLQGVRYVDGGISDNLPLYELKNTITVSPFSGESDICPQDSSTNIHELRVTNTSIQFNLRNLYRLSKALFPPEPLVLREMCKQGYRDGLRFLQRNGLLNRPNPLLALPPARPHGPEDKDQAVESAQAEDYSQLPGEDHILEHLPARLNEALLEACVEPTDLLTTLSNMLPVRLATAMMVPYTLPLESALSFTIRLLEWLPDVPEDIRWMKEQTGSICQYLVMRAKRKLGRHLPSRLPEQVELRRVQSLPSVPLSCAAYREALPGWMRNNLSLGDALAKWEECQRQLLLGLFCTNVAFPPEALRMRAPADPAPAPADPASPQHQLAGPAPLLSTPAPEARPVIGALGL

In the case of PEDF (from UniProt P36955), the dissociation constant Kd was 3 nM.
